Laboratory results reported in patent JP2023550785A.
Like-named read-outs stand apart in the source and are kept apart here.

How the values were obtained:
[1] = target: SARS-CoV-2 (BetaCoV/Wuhan-Hu-1/2019) prefusion-stabilized spike (S) protein / S ectodomain trimer (SARS-CoV-2 (BetaCoV/Wuhan-Hu-1/2019)) (UniProt P0DTC2); assay: SPR (Biacore T200), S ectodomain trimer captured, Fab as analyte
[2] = target: SARS-CoV-2 (BetaCoV/Wuhan-Hu-1/2019) prefusion-stabilized spike (S) protein / S ectodomain trimer (SARS-CoV-2 (BetaCoV/Wuhan-Hu-1/2019)) (UniProt P0DTC2)

antibody S2P6 (antibody 420 1 1), human monoclonal antibody expressed as recombinant human IgG1, sequence (VH): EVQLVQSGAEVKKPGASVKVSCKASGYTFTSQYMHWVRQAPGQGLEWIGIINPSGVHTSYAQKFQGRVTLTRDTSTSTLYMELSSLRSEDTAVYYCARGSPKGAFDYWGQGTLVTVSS
antibody S2P6 (antibody 420 1 1), human monoclonal antibody expressed as recombinant human IgG1, sequence (VL): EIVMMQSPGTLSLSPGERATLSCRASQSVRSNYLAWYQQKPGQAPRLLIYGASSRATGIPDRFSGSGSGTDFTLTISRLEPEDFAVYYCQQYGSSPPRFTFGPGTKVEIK
S2P6 Fab fragment, sequence (VH): as the sequence (VH) above
S2P6 Fab fragment, sequence (VL): as the sequence (VL) above

Substance | Kd [1] [nM] | Kd [2] [nM] | koff [2] [s⁻¹] | kon [2] [M⁻¹ s⁻¹]
S2P6 Fab fragment | 7 |  |  | 
antibody S2P6 (antibody 420 1 1), human monoclonal antibody expressed as recombinant human IgG1 |  | < 0.001 | < 1e-07 | 453000
